Laboratory results published in the domain aggregation screens of Martell et al. (2025).

Test: soluble fraction after stress (log2 fold change); higher = more stays soluble; pooled small domains, quantitative proteomics
Details: stress: 75 degC
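Note: 20 min heating vs room temperature control held 20 min.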

Row | Sequence | soluble fraction (log2)
1 | HMEFLDLEIDVDATDGRLLAFLAAKGEVVSQTFNDTIITVRVRMPTGAMGQVHRSALAIRPA | -2.24
2 | HMSTEAFLGTEGEVVLPLLPDGLGKIRLHVADQDVELPARTGGEPIQIRERVVVVRFRDGIAEVEPAP | 0.0378
3 | HMSGSKEQQIVILNNILERQLQAFGLQGNREFPMVTLKNIYNSLSKIIENAGLKNVENYFVNPEQGKQM | -0.0735
4 | HMDLLESLSAREREVVHLASRGLVNKLIARELGITERTVKAHLSSAFEKLHIKDRVHLALLVNGI | -2.46
5 | HMSTEDYLKTIYILESQQGVHGSDVARMLKVTRPTVSIALKALEQEGYVWMDESRLVHLTDSGLQIAKDT | -0.914
6 | HMSVDIWTGAQTGNIEAVKQHLADGVDVNSKSDIGRTALDVAIAFKQPLITDLLRKHGGKTRDELKAAE | ≥ 1.04
7 | HMGELRAPLPGVIVSIPVKEGDEVKAGQAILIIEAMKMESEISSPIDAKVAKIVVKERVLVQEGDILIILE | -1.33
8 | HMQDPVWVDWLGENDWFQKDPKRRGLANGYSEILRAEQPELVGRPFLDEVTRRVQADFPELFG | -0.944
9 | HMEIKDQADAYGKMEPASAAAILSEMTNDLTLVAKILDSMQTSKSALILQNMKPTTAAQVTTKMTAMK | 0.0474
10 | HMTQNSAITNRVLYMQRTLRQYGYAVPESGNFDRTTRAHAAEFLYNATGLPVRENQSVQEFYRAFQRVQG | -1.77
11 | HMRGRFGNAAPARNLGDHPQGGAINVKAGRYGPYVSWGKVNATLPKDSDPEKVTLEEAVALIAAKQSGQG | -0.111
12 | HMTTSNPMNVTSAEAAFDNGTDRLNAFISGRTTSEERSTYFPLFVRETKEDFLRAVGRFNEYIANHG | 0.055
13 | HMAAIPEQVSEEVVSAVKASGIDPGKVTKEQWTSLLKGRRTALGSSSGKLFMLSKAPVGYTLKAVNA | 0.439
14 | HMEEIIPIRFLRHRVKRRETIFGLTQKYNITEDQLKRYNTRLYSEALERKMVLQIPVFPEVDED | -2.29
15 | HMGRELSDLELSLLRILDDKIPLLIDEAADRLQLPVAQVLSAVTIMEIDGLIRREGMRKYLRTVEVEETK | -1.63
16 | HMARAPIYPDGLTQREVEVLSLVAAGKTDREIAEELFIALRTVTTHVGNILNKIGAANRTEAAGYATRQGL | -1.7
17 | HMSFGWETLEGKEGVTDTDLHPSGWVKVGDEKIFVVSQGEFLGKGTDIVVVSVDGNRVVVKELI | -0.998
18 | HMGMYAEERHQAIASLARKHGRVSVAELAERFNVTSETIRRDLDSLARRGLLTRVHGGAVPVE | 0.0144
19 | HMHSIFPVIRSTSFPTKSNDGELFITSDHTAETRIYYALDLGNTYRLIDQKVMNEINLTESLVKETARF | -1.72
20 | HMSAMSPTEVGERLRLAREAVRMTQKQAADAISVARTTLVAIEQGQRRVRIDELQQLAKTYGVSVNAILR | -2.27
21 | HMDVSVPDVTGTRLDRAQSLLEAQGLTLGKVEEFFHATEPAGIVYDQEPRPGTRVDEGTAISVSVSKGPEA | 0.323
22 | HMEIDMQEGIKTIILMMKEHNITPSEAMKIYKSANGDIHYISKIYNHFKNKGADNFVALMIKMVKPGEFIE | -2
23 | HMPDIFDRGTAHITDAASGVAITFTRTFRIPPEVTMTHKGGTVVAIARLVGSITTGGFTAVLENT | 0.0362
24 | HMIERVLRTEEHIEAFAGEEVEAKLFAPIDGKKTLRGILGGIEDGRVILTVGDTEYRIEHAKISRLTTVFD | -0.881
25 | HMGEPQAWNELIGNLLRQWEARQTGWTPARKREALDRVLGAADPAALYTRLQGLLKSWTQAMTDADA | -1.73
26 | HMFVNADEIAKGLSPFNPSSVAIEAGRLMLKRIGELLSAGVSFSVETTLSTRSYINLIQQAQNQGYSVSL | 0.822

Row | Sequence | soluble fraction (log2)
27 | HMHHSGLRQSQFDEISRQIRSLLEMESLSLQELKTRMEDVPEEQLTKVVSYLLSEEIIRQENGRLQ | 0.254
28 | HMEPEVSNTYEKVLGMHHFSSTRSHQLHDLVRQANALELSLGEIESIAQSAKDGAQVISDIKHWMEPNRQ | 0.381
29 | HMTATSKKAAWDEVNKIFPTDYERSAAESERAGYAIFRSTAEGVNAWISDLGDRLEINLPDGKTVNIWIEE | -0.0996
30 | HMSTINGIEKYLSSGLIPYIGPKTAKRIVEKFGLDTLEIIQYNPERLKEIEGIGDKKLKKIVEAFEEQG | -0.245
31 | HMEGMSIYVTVNGDMVHLTGKMSYVFVDVFEHIDFDLSKPQGSGIVTKLNGRDAQYMEEIRSGDMIEIYWR | -0.956
32 | HMEEFIEHTVEKGEFLSAIIVAYNQHLKSKGFKSITTRDILNANPKLKPELIQVGQKIKIPRRKK | -1.71
33 | HMGYTTSFVVQLKNAVSISFDEIDQNLRKLPGVEDVVIVEEAAMAYLKVDRQHFREEQLAHFEFVRQ | -1.99
34 | HMHPEQTLEKIVDISAELFAKKGYEQTSIQDILDATGLSKGGLYHHFKSKEEILEAVMQKRVQY | -0.154
35 | HMQMSDTSMIRDLVLQVLAENPQSIEDFKNGKDRAVGFLVGMVMKKSQGKANPQITNQMIVEELKK | -0.228
36 | HMLTEREQDTLNFIRQYIDEQGRSPLVSEIAKGLGIKSQGTTHRYIQALVDAGLLERHVGRTRGLHLT | -0.0653
37 | HMIQNTGMMESGDSIRGMALDAGFPLLMVVGYRGWTRKGNTPDSAAVYTEPFLNAFRLNYYLVEHDE | 0.3
38 | HMKHSEAIELGKRMLSQALQDVSLVLKKIPEERLQAVAAELNLKTPDELFEKIGLGERLAALVARRLLP | -0.851
39 | HMSDIPEGYMSRVQLGDEWGIHLATFDKAVIAVKEKLGTVVFIDKSNNTTAGYSPEQQTIIYDWLAEN | -2.22
40 | HMNAELSTVQAAEVLNVSRPFLIKLLEDGAIPHRKVGKHRRVRMEDVMSYKAAIDTEREAVLDQLAA | -0.13
41 | HMDRLTISTLGNGLFRVNGAEAEATVYNLSGNVVKVVPADEVIDLSSLAKGVYIIHVDGEAFKVI | -1.13
42 | HMHVGVWIMNEKGEILLEQRASNKKVDPNKWARIGGHVDAGEKPIQAIQREILEEIGVKIPLENFIVLET | -0.266
43 | HMPKRSKDEAELEFLEMLRDNQVDSTWSFGKIISQLGSTDPRYWMVDDDPLWKRQIFEKYLSNR | -0.228
44 | HMAGTWQDQGNGQWKYQNDDGSYATGWIEDSGKSYYLDANGIMLANTTTPDGKQVGPDGALIP | -0.15
45 | HMLRQVSDSNALETAVKKVLDANPEEVERYKSGNKKLISFFVGQTMKATKGAGNPKEINSILAKLL | -0.326
46 | HMPNDYRKKLEILAKEKGAEYLHTMLTEVDPKSALQIHTNNIKRTIRALEFYHQTGMKISEHNEAEREK | -0.204
47 | HMRYWVKSETDFLIENRGKYSYQEFADMLGRSYAVVYDKMHQLKIDYTKEELEIFDEKHKAQMREKQQR | -1.96
48 | HMTGEEVLIMLGEKMKLIRNYNGYSQRQIAEILKIERSTYASYETGRNRPDIFAVQRFAKIFNVSVDYIL | -0.244
49 | HMTTVKDRVYEILKREIVLGKLKPGEPINIAVLSTKLNISSAPLREALNMLSRDGLVTLNPRKHAAVSE | -1.31
50 | HMAPGSKAEIPEDLMKVINKDPKMKAFVATLNKANIMAISFRLSTAKKPETRERRFNLILETLKRGEKF | -3.16
51 | HMSNIQLVENLYRLRKAHHYTQQEISDLLNISRQAYSNYETSKRTPDLDSLMRLADIYGVSLDQLVNHP | -1.93
52 | HMGQGAASAPLRELGVDPVSEKQMVLKDGRFGPYVTDGETNASLRKGDEVETITDERASELLQMRRDAGPS | -0.139

Row | Sequence | soluble fraction (log2)
53 | HMLETLVYPNPTTDKILLSSPVDYHLFSLKGELVLEGRGSSIEVSQLSKGVYFLNTKTQTFKIIK | -0.62
54 | HMQSFIEELLPVVDNFERSLAVVDPSDEIKNFLKGYEMIYNQLMEVLKSQGVEVIKTEGEEFDPNFHQA | -0.121
55 | HMDIASNQIQGIKDSVGGDENYSKMVAWALESLPAEEVKAFNDLTETANAPAIKMAVQGLYSQYNNAM | 0.195
56 | HMLTWNQLGLITKPVVFLDGTGYYARLFEAFEHMISTGFVKENYRAMMNRATSVEEAVRIASSPAPKVD | -0.0438
57 | HMILNPQELGERIRKLRLKRNKTQSYFADMLYISSSYLALIESGKRVPNLDLLIHIAKFTDVTLDYLVFG | -1.24
58 | HMSSRSLSYSDFIERVDAGQVSKVVMDGERLVVVGQDGTSYVTIKPPGDQVTENLSRELISKGVEVEAEPQ | -0.0305
59 | HMSKIVPVAYSQFLKDVKNGNVSQVEIRGNNIKGINNNGSSFSTYAPNDLSLIDKLEKSNVEIIVMPLE | -0.368
60 | HMVGMDRYFKIKNIKDSSAAFERDYILHFLKENDWMVSKTAQMIGLERTTLYKKIKQLGLASMLEN | -3.24
61 | HMSKDQKKFFIEIVSIRGFGSQIGISILNKLSIPQIINAIKTQNKKEISSIPGIGQKMTERLILELNNKFK | -0.183
62 | HMDNLSESQIKAYSSILSRTHEISDLAENKDYLAFSLWIANILRDPQSVREETAKRVFSALHTNTDFK | -0.984
63 | HMVLLGAAIRELRIQKGITIEELAEMSGLSTGLISKIERDLGNPSISSLRKISRALGVPTAFFFA | -3.28
64 | HMRMNASERQNQIVDLLSQNGVMKIMDIADHFNVSRETIRRDLIILEDDNRIKKWFGGVISAN | -0.706
65 | HMIVNTTRAPYLLGETEQDAMRLARQAGLVPEIVRQSSAEPAGTVILQSHDFDYRMRRGSVILITVSTGPL | -2.84
66 | HMRGETSYANDIIKRLKQANLIVVEGTLYPLLNRLKKDGLLHYEWRESQQGPPRKYYGLTEEGEA | -0.273
67 | HMADLIVFTTDANKEKKVDDETYFYLDVVSDGKLVENYELTEKQYNYIKDLGVGEYVYNEKGKLDSYTAFT | -0.00206
68 | HMVVRKHDRYYTPEHRKLLMDTYERTNKYPTKQDMSELAKIIGVLPIKILWWYTHRRRQDRRKGEESSSP | 0.0496
69 | HMVNLLVTPLEELEINFRTLRALRKYNIYQLEDLLRFIKYNGFDALRIVPGMGIKSTEQLYEKLKDKNI | -0.112
70 | HMKNVADEVFEKMLNMIIEGDWKKGEMIPSENELREAFSVSRSTVRQAVQRLSALGIVRSRQGKGTYVEQV | -1.7
71 | HMLSLTSRQQEIFDLIKGHIKKTGMPPTRSEIALHFGFRSANSAEEHLRALARKGFIELIPGTSRGIKLIE | -1.87
72 | HMTHSEYVGRHGIAATSLRPAGAATIDGSRVDVVTSGEYIEKGTPIEVMTVNGSTVRVKAVPQIP | 0.203
73 | HMPTNSDRLIGSDGVVSSKIDNLQGTGKVYISGLTWSARTIDGSEAEEGDIVTVEKIEGATLYVTKR | 0.174
74 | HMTATVPDSEAGIRLDVYAAALLGVSRAGAQKYIESGAVRVNGLPAPKNRRLESGDVIEAVLPDPE | 0.194
75 | HMGPVALGVTDGATYFSSVTITFRRGTAVLDGEPIASGHTVYKSGAHSLTLTAGGKTRTIAFTMDT | -4.04
76 | HMVKVEVKPNVLQWVIKRMDNFDRLKDQFPNIDKWINQESQPTLKQLEKLAKMTAVPLGYFFLPNPPEEK | -1.12
